{"source": "paper PMC7939481", "molecular_target": "human CaV2.1 (P/Q-type) voltage-gated calcium channel (human)", "data": [{"substance": "human G-protein Gβ1γ2 heterodimer (from UniProt P62873-1 1-340; P59768 1-71) (complex)", "values": [{"measurement": "τ activation of hCaV2.1 macroscopic current with co-expressed human Gβ1γ2, after a +150 mV prepulse", "value": 3.26, "unit": "ms"}, {"measurement": "τ activation of hCaV2.1 macroscopic current with co-expressed human Gβ1γ2, without prepulse (1.16-1.20 ms without G proteins)", "value": 10.6, "unit": "ms"}]}]}
